“Also recorded” adds a separate entry of the source.
Tested on: mevalonate biosynthetic pathway
Test: Mevalonate production with synthetic scaffolds in E. coli
Format: cell-based, Escherichia coli
Method: The scalability of the co-recruitment strategy was tested by building separate scaffold devices capable of co-localizing multiple enzymes. Scaffolds provide a means for physically separating the binding elements for design control from the catalytic activities. Thus, the only modification to the enzyme necessary for gaining modular control over complex formation is the addition of a single interaction ligand to each enzyme. A peptide ligand specific for a corresponding protein-protein interaction domain was recombined to the C-terminus of each enzyme of the mevalonate biosynthetic pathway (FIG. 3a). Scaffolds were built by tethering together, via flexible nine amino acid glycine-serine linkers, different numbers of three protein-protein interaction domains from metazoan genomes: the GTPase Binding Domain (GBD) from the actin polymerization switch N-WASP, the SH3 domain, and the PSD95/DlgA/Zo-1 (PDZ) domain from the adaptor protein syntrophin (see Table 1, below).
By varying the number of repeats of these interaction domains, the ratio of individual pathway enzymes co-localized to the resultant complex could be controlled. Scaffolds were built with a single GBD domain for recruiting AtoB and varying numbers of SH3 and PDZ domains for recruiting HMGS and HMGR, respectively. A matrix of scaffolds was made with the architecture (N-terminal to C-terminal) of GBDxSH3yPDZz where x=1 and y and z were varied to be 1, 2, or 4. For separate inducible control, the pathway enzymes were placed under transcriptional control of the tetracycline-inducible promoter (Ptet), and the scaffolds were under transcriptional control of the arabinose-inducible promoter (PBAD). In an effort to lower the metabolic load imposed on the production host, mevalonate production experiments were conducted with low expression levels of the mevalonate pathway enzymes (7 nM aTc) and a high scaffold expression level (250 μM arabinose) to improve pathway efficiency.

B1: G1S2P2: optimized scaffold polypeptide with 1, 2, and 2 repeats of GBD, SH3, and PDZ domains (SEQ ID NO:37) (protein)
chain: MTKADIGTPSNFQHIGHVGWDPNTGFDLNNLDPELKNLFDMCGISEAQLKDRETSKVIYDFIEKTGGVEAVKNELRRQAPGSGSGSGGSMAEYVRALFDFNGNDEEDLPFKKGDILRIRDKPEEQWWNAEDSEGKRGMIPVPYVEKYGSGSGSGGSMAEYVRALFDFNGNDEEDLPFKKGDILRIRDKPEEQWWNAEDSEGKRGMIPVPYVEKYGSGSGSGGSMLQRRRVTVRKADAGGLGISIKGGRENKMPILISKIFKGLAADQTEALFVGDAILSVNGEDLSSATHDEAVQALKKTGKEVVLEVKYMKEVSPYFKGSGSGSGGSMLQRRRVTVRKADAGGLGISIKGGRENKMPILISKIFKGLAADQTEALFVGDAILSVNGEDLSSATHDEAVQALKKTGKEVVLEVKYMKEVSPYFKGS
change in mevalonate production with increasing concentrations of glycerol (glycerol as carbon source, increases saturated at approximately 4% glycerol): improved dramatically; also recorded: significant increases | fold increase in mevalonate production compared to the unscaffolded pathway (G0S0P0) (low pathway enzyme expression (7 nM aTc), high scaffold expression (250 μM arabinose), 4% glycerol): 77 fold | fold more mevalonate than G0S0P0-GFP (pathway under pTET, scaffold under pBAD, control expresses GFP instead of scaffold): 77 fold
